Positions count from the first letter of the chain named.

The values below come from US20240400715A1 (VIBRANT PHARMA, published 2024).

Test [1] has as its target T1, human CD3ε/δ (ACRO systems, CDD-H52W1) (human, UniProt P07766 23-126; P04234 22-105).
T1 construct: bought recombinant heterodimer; also called human CD3 epsilon/delta; Human CD3ε/CD3δ
The test can be described thus: serum-stability ELISA, Day 1 vs Day 0. On the technique in general: In an ELISA, binding on a coated surface is turned into a signal by an enzyme label.
Description: (§1) The samples to be tested were centrifuged at 4° C. at 12000 rpm for 30 minutes to remove the precipitate. 200 μl of each sample to be tested (0.5 mg/ml) was collected in a 1.5 ml Eppendorf tube. An equal volume of human serum (GEMINI, H2OYOOK) was added, mixed thoroughly, and the mixture was incubated in a 37° C. constant temperature CO₂ incubator. For a total of 10 days, 40 μl samples was aspirated every day and stored at −20° C.
(§2) Enzyme-linked immunosorbent assay (ELISA) was used to test the bispecific antibodies' binding to human CEA and human CD3 epsilon/delta antigen. The steps are as follows: the antigen human CD3ε/δ (ACRO systems, CDD-H52W1) and the recombinant tumor antigen human CEA (CEACAM-5/CD66e, ACRO systems, CE5-H5226) were diluted to 1 μg/ml with PBS, and then added to the 96-well plate at 100 μl per well. The wells were coated overnight at 4° C. After washing 3 times with 0.05% PBST, 200 μl 5% skimmed milk powder was added to each well and incubated at 37° C. for 2 h. After washing 3 times with 0.05% PBST, 100 μl primary antibody sample (10 μg/ml) was added to each well, and incubated at 37° C. for 2 h. After washing 3 times with 0.05% PBST, 100 μl (1:6000) diluted secondary antibody goat anti-human Fc-HRP (sigma, A2170) was added to each well, incubated at room temperature for 1 h. After washing 8 times with 0.05% PBST, 50 μl TMB color developing solution was added to each well, and incubated at room temperature for 10-15 min. 50 μl 1 mM HCl was added to each well to stop the color development. 450 nm Absorbance (OD) was read.
(§3) The binding of antibodies to antigen was calculated according to the following formula: Binding (%)=[(ODdayn−ODb)/(ODday0−ODb)]×100%. ODdayn: experimental well (the protein was stored in the serum for n days); ODday0: control well (the protein was not stored in the serum); ODb: blank well (no primary antibody added).

Test [2] addresses T1, human CD3ε/δ (ACRO systems, CDD-H52W1). The test can be described thus: serum-stability ELISA, Day 9 vs Day 0.
Description: as §1, §2, §3
The target is the same in test [3]. The test can be described thus: serum-stability ELISA, Day 2 vs Day 0.
Description: as §1, §2, §3
Test [4] has the same target. The test can be described thus: serum-stability ELISA, Day 0 (reference).
For test [5] the target is unchanged. The test can be described thus: serum-stability ELISA, Day 6 vs Day 0.
Description: as §1, §2, §3
Test [6] has the same target. The test can be described thus: serum-stability ELISA, Day 7 vs Day 0.
Description: as §1, §2, §3
The target is the same in test [7]. The test can be described thus: serum-stability ELISA, Day 10 vs Day 0.
Description: as §1, §2, §3
Test [8] shares this target. The test can be described thus: serum-stability ELISA, Day 5 vs Day 0.
Description: as §1, §2, §3
Test [9] shares this target. The test can be described thus: serum-stability ELISA, Day 2 vs Day 0. The source holds these as a separate data set.
Description: as §1, §2, §3
The target is the same in test [10]. The test can be described thus: serum-stability ELISA, Day 10 vs Day 0. The source holds these as a separate data set.
The target is the same in test [11]. The test can be described thus: serum-stability ELISA, Day 1 vs Day 0. The source holds these as a separate data set.
Description: as §1, §2, §3
For test [12] the target is unchanged. The test can be described thus: serum-stability ELISA, Day 0 (reference). This is another data set of the same source.
The target is the same in test [13]. The test can be described thus: serum-stability ELISA, Day 7 vs Day 0. The source holds these as a separate data set.
Description: as §1, §2, §3
Test [14] has the same target. The test can be described thus: serum-stability ELISA, Day 6 vs Day 0. This is another data set of the same source.
Description: as §1, §2, §3
The target is the same in test [15]. The test can be described thus: serum-stability ELISA, Day 9 vs Day 0. This is another data set of the same source.
Description: as §1, §2, §3
Test [16] shares this target. The test can be described thus: serum-stability ELISA, Day 5 vs Day 0. The source holds these as a separate data set.
Description: as §1, §2, §3

B1: 201 (CEA-Fab-Knob-+Hole) (bispecific antibody, human IgG4 S228P, kappa, F234A L235A)
heavy: EVKLLESGGGLVQPKGSLKLSCAASGFTFNTYAMNWVRQAPGKGLEWVARIRSKYNNYATYYADSVKDRFTISRDDSQSILYLQMNNLKTEDTAMYYCVRHGNFGNSYVSWFAYWGQGTLVTVSSASTKGPSVFPLAPCSRSTSESTAALGCLVKDYFPEPVTVSWNSGALTSGVHTFPAVLQSSGLYSLSSVVTVPSSSLGTKTYTCNVDHKPSNTKVDKRVESKYGPPCPPCPAPEAAGGPSVFLFPPKPKDTLMISRTPEVTCVVVDVSQEDPEVQFNWYVDGVEVHNAKTKPREEQFNSTYRVVSVLTVLHQDWLNGKEYKCKVSNKGLPSSIEKTISKAKGQPREPQVYTLPPCQEEMTKNQVSLWCLVKGFYPSDIAVEWESNGQPENNYKTTPPVLDSDGSFFLYSRLTVDKSRWQEGNVFSCSVMHEALHNHYTQKSLSLSL
chain: ESKYGPPCPPCPAPEAAGGPSVFLFPPKPKDTLMISRTPEVTCVVVDVSQEDPEVQFNWYVDGVEVHNAKTKPREEQFNSTYRVVSVLTVLHQDWLNGKEYKCKVSNKGLPSSIEKTISKAKGQPREPQVCTLPPSQEEMTKNQVSLSCAVKGFYPSDIAVEWESNGQPENNYKTTPPVLDSDGSFFLVSRLTVDKSRWQEGNVFSCSVMHEALHNRFTQKSLSLSL
light: QAVVTQESALTTSPGETVTLTCRSSTGAVTTSNYANWVQEKPDHLFTGLIGGTNKRAPGVPARFSGSLIGDKAALTITGAQTEDEAIYFCALWYSNLWVFGGGTKVEIKRTVAAPSVFIFPPSDEQLKSGTASVVCLLNNFYPREAKVQWKVDNALQSGNSQESVTEQDSKDSTYSLSSTLTLSKADYEKHKVYACEVTHQGLSSPVTKSFNRGECGGGGSGGGGSEVQLVESGGGFVQAGESLTLSCTSSTLTFTPYRMAWYRQAPGKQRDLVADISSGDGRTTNYADFAKGRFTISRDNIKNTVFLRMTNLKPEDTAVYYCNTFVSFVGIARSWGQGTQVTVSS
notes: VHH fused after CL of the light chain
With B1, the Binding % in [1] was 104%; in test [2], 101%; in [3], 76.3%; in test [4], 100%; in test [5], 102%; in test [6], 104%. For the same molecule, the results for the Binding % in test [7] and in [8] were 98.8% and 105%, respectively.

B2: 202 (Knob+CEA-Fab-Hole) (bispecific antibody, human IgG4 S228P, kappa, F234A L235A)
chain: B1 chain with C131Y, S136C, S148W, A150L, V189Y, R217H, F218Y
heavy: B1 heavy with Y354C, C359S, W371S, L373A, Y412V, H440R, Y441F
light: B1 light
notes: as for B1
As to B2, the Binding % in test [1] amounted to 108%; in test [2], 104%; in [3], 86.8%; in test [4] it was 100%; in test [5], 108%; in [6], 108%. For the same molecule, the Binding % is 99.1% in test [7] and 110% in test [8].

B3: 204 (Knob+CEA-Fab-Hole) (bispecific antibody, human IgG4 S228P, kappa, F234A L235A)
chain: B1 chain with C131Y, S136C, S148W, A150L, V189Y, R217H, F218Y
heavy: B1 heavy with Y354C, C359S, W371S, L373A, Y412V, H440R, Y441F
light: EVQLVESGGGFVQAGESLTLSCTSSTLTFTPYRMAWYRQAPGKQRDLVADISSGDGRTTNYADFAKGRFTISRDNIKNTVFLRMTNLKPEDTAVYYCNTFVSFVGIARSWGQGTQVTVSSGGGGSGGGGSQAVVTQESALTTSPGETVTLTCRSSTGAVTTSNYANWVQEKPDHLFTGLIGGTNKRAPGVPARFSGSLIGDKAALTITGAQTEDEAIYFCALWYSNLWVFGGGTKVEIKRTVAAPSVFIFPPSDEQLKSGTASVVCLLNNFYPREAKVQWKVDNALQSGNSQESVTEQDSKDSTYSLSSTLTLSKADYEKHKVYACEVTHQGLSSPVTKSFNRGEC
notes: VHH fused before VL of the light chain
As to B3, the Binding % in test [1] was found to be 105%; in test [2] it was 105%; in test [3], 102%; in test [4] it was 100%; in test [5], 103%; in test [6], 103%. The Binding % in [7] worked out at 99.4%; in test [8], 99.8%.

B4: 203 (CEA-Fab-Knob-+Hole) (bispecific antibody, human IgG4 S228P, kappa, F234A L235A)
heavy: B1 heavy
chain: B1 chain
light: B3 light
notes: as for B3
Take B4: the Binding % in test [1] was found to be 103%; in test [2], 103%; in [3], 85.3%; in test [4] it was 100%; in test [5], 101%; in test [6], 106%. The Binding % in [7] stood at 101%; in test [8] it was 102%.

B5: 112 (Knob-CEA+Hole-Fab) (bispecific antibody, human IgG4 S228P, kappa, F234A L235A)
chain: ESKYGPPCPPCPAPEAAGGPSVFLFPPKPKDTLMISRTPEVTCVVVDVSQEDPEVQFNWYVDGVEVHNAKTKPREEQFNSTYRVVSVLTVLHQDWLNGKEYKCKVSNKGLPSSIEKTISKAKGQPREPQVYTLPPCQEEMTKNQVSLWCLVKGFYPSDIAVEWESNGQPENNYKTTPPVLDSDGSFFLYSRLTVDKSRWQEGNVFSCSVMHEALHNHYTQKSLSLSLGGGGSGGGGSEVQLVESGGGFVQAGESLTLSCTSSTLTFTPYRMAWYRQAPGKQRDLVADISSGDGRTTNYADFAKGRFTISRDNIKNTVFLRMTNLKPEDTAVYYCNTFVSFVGIARSWGQGTQVTVSS
heavy: ESKYGPPCPPCPAPEAAGGPSVFLFPPKPKDTLMISRTPEVTCVVVDVSQEDPEVQFNWYVDGVEVHNAKTKPREEQFNSTYRVVSVLTVLHQDWLNGKEYKCKVSNKGLPSSIEKTISKAKGQPREPQVCTLPPSQEEMTKNQVSLSCAVKGFYPSDIAVEWESNGQPENNYKTTPPVLDSDGSFFLVSRLTVDKSRWQEGNVFSCSVMHEALHNRFTQKSLSLSLGGGGSGGGGSEVKLLESGGGLVQPKGSLKLSCAASGFTFNTYAMNWVRQAPGKGLEWVARIRSKYNNYATYYADSVKDRFTISRDDSQSILYLQMNNLKTEDTAMYYCVRHGNFGNSYVSWFAYWGQGTLVTVSSASTKGPSVFPLAPCSRSTSESTAALGCLVKDYFPEPVTVSWNSGALTSGVHTFPAVLQSSGLYSLSSVVTVPSSSLGTKTYTCNVDHKPSNTKVDKRV
light: QAVVTQESALTTSPGETVTLTCRSSTGAVTTSNYANWVQEKPDHLFTGLIGGTNKRAPGVPARFSGSLIGDKAALTITGAQTEDEAIYFCALWYSNLWVFGGGTKVEIKRTVAAPSVFIFPPSDEQLKSGTASVVCLLNNFYPREAKVQWKVDNALQSGNSQESVTEQDSKDSTYSLSSTLTLSKADYEKHKVYACEVTHQGLSSPVTKSFNRGEC
notes: TA1 Fab, C17 VHH, IgG4 Fc KIH
With B5, the Binding % in [9] is 102%; in test [10], 98.4%; in test [11], 99%; in test [12], 100%; in test [13], 104%; in [14] it was 110%. The Binding % in test [15] was determined as 102%; in test [16], 104%.
